The values below come from publication PMC2807882.

The target in experiment [1] is T1, Mmp53 (mouse p53) with C-terminal FlAsH tag, labelled with FlAsH (mouse (Mus musculus)), P02340.
T1 chain: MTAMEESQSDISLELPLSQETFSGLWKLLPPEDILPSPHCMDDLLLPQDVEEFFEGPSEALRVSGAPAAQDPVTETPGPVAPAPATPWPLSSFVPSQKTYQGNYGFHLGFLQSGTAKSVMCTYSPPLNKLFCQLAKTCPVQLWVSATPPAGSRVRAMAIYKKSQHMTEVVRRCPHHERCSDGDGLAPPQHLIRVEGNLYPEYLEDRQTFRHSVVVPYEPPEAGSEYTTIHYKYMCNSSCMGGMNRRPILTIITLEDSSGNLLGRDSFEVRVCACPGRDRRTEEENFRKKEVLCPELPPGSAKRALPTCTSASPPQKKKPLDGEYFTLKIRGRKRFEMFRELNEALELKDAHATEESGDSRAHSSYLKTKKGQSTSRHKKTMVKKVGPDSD
Kind of experiment: AUC; sedimentation velocity with fluorescence detection, FlAsH-labelled protein at 5-500 nM; 150 mM NaCl, 25 mM phosphate pH 7.2, 10% glycerol, BSA 0.2 mg/mL, 1 mM beta-mercaptoethanol, 10°C; tetramer to dimers; Kd expressed in concentration of monomer. To be noted: remark: other sources report otherwise.

Experiment [2] has as its target T1, Mmp53 (mouse p53) with C-terminal FlAsH …. The experiment in a line: dimer-tetramer equilibrium. To be noted: natural protein, chains chain, FlAsH (from FlAsH-EDT2, Lumio Green) on the C-terminal CCPGCC tetra-cysteine tag, remark: other sources report otherwise.
Experiment [3] addresses T2, Mus musculus p53, full length, with C-terminal FlAsH tag, FlAsH-labelled (Mus musculus), P02340.
T2 chain: T1 chain
Kind of experiment: AUC; sedimentation velocity with fluorescence detection, FlAsH-labelled protein at 5-500 nM (monomer); 150 mM NaCl, 25 mM phosphate pH 7.2, 10% glycerol, BSA 0.2 mg/mL, 1 mM β-mercaptoethanol, 10°C; tetramer to dimers; Kd expressed in concentration of monomer. To be noted: remark: other sources report otherwise.

B1: Mmp53 (mouse p53) with C-terminal FlAsH tag, labelled with FlAsH, P02340 1-390 (natural protein)
chain: T1 chain
modifications: here or on the partner: FlAsH (from FlAsH-EDT2, Lumio Green) on the C-terminal CCPGCC tetra-cysteine tag; FlAsH (from FlAsH-EDT2, Lumio Green) on the C-terminal CCPGCC tetra-cysteine tag
In experiment [1], B1 gave a fold weaker self-association (dimer-tetramer equilibrium) than Dmp53, Drp53 and ΔNp73β of 10 fold; a stoichiometry N of 4. The Kd in experiment [2] was 17.2 nM.

B2: Mus musculus p53, full length, with C-terminal FlAsH tag, FlAsH-labelled, P02340 1-390 (natural protein)
chain: T1 chain
modifications: here or on the partner: FlAsH (from FlAsH-EDT2, an arsenic derivative of fluorescein) on the C-terminal CCPGCC tetra-cysteine tag; FlAsH (from FlAsH-EDT2, an arsenic derivative of fluorescein) on the C-terminal CCPGCC tetra-cysteine tag
In turn, B2 came in with a Kd in experiment [3] of 17.2 nM.

In general, stoichiometry N refers to a count of units in the complex or per binding partner. In general, Kd refers to the concentration at which binding is half-saturated.
